B1: Flag-EMI-domain-GPI (emilin-1 EMI domain tagged with the Flag epitope and bound to a GPI anchor) (other, not shown: small tags and cut ends; large carriers)
chain: RHRNWCAYVVTRTVSCVLEDGVETYVKYQPCAWGQPQCPQSIMYRRFLRPRYRVAYKTVTDMEWRCCQGYGGDDCAE
modifications: GPI (glycosylphosphatidylinositol) anchor at the COOH-terminal end
notes: Expressed in transfected HEK293T cells and tested in cell extracts; also called EMI-domain-GPI-anchor; GPI anchored EMI domain
B2: emilin1ΔEMI: emilin protein lacking the EMI-domain, used as control (protein)
chain: ASYPPRGFSLYTGSSGALSPGGPQAQIAPRPASSPAPALGPASSTPRPLARPARPNLSGSSAGSPLSGLGGEGPGESEKVQQLEEQVQSLTKELQGLRGVLQGLSGRLAEDVQRAVETAFNGRQQPADAAARPGVHETLNEIQHQLQLLDTRVSTHDQELGHLNNHHGGSSSSGGSRAPAPASAPPGPSEELLRQLEQRLQESCSVCLAGLDGFRRQQQEDRERLRAMEKLLASVEERQRHLAGLAVGRRPPQECCSPELGRRLAELERRLDVVAGSVTVLSGRRGTELGGAAGQGGHPPGYTSLASRLSRLEDRFNSTLGPSEEQEESWPGAPGGLSHWLPAARGRLEQLGGLLANVSGELGGRLDLLEEQVAGAMQACGQLCSGAPGEQDSQVSEILSALERRVLDSEGQLRLVGSGLHTVEAAGEARQATLEGLQEVVGRLQDRVDAQDETAAEFTLRLNLTAARLGQLEGLLQAHGDEGCGACGGVQEELGRLRDGVERCSCPLLPPRGPGAGPGVGGPSRGPLDGFSVFGGSSGSALQALQGELSEVILSFSSLNDSLNELQTTVEGQGADLADLGATKDRIISEINRLQQEATEHATESEERFRGLEEGQAQAGQCPSLEGRLGRLEGVCERLDTVAGGLQGLREGLSRHVAGLWAGLRETNTTSQMQAALLEKLVGGQAGLGRRLGALNSSLQLLEDRLHQLSLKDLTGPAGEAGPPGPPGLQGPPGPAGPPGSPGKDGQEGPIGPPGPQGEQGVEGAPAAPVPQVAFSAALSLPRSEPGTVPFDRVLLNDGGYYDPETGVFTAPLAGRYLLSAVLTGHRHEKVEAVLSRSNQGVARVDSGGYEPEGLENKPVAESQPSPGTLGVFSLILPLQAGDTVCVDLVMGQLAHSEEPLTIFSGALLYGDPELEHA
B3: multimerin 2: emilin family protein produced by endothelial cells, GenBank NP—079032 (protein)
chain: QASSTSLSDLQSSRTPGVWKAEAEDTGKDPVGRNWCPYPMSKLVTLLALCKTEKFLIHSQQPCPQGAPDCQKVKVMYRMAHKPVYQVKQKVLTSLAWRCCPGYTGPNCEHHDSMAIPEPADPGDSHQEPQDGPVSFKPGHLAAVINEVEVQQEQQEHLLGDLQNDVHRVADSLPGLWKALPGNLTAAVMEANQTGHEFPDRSLEQVLLPHVDTFLQVHFSPIWRSFNQSLHSLTQAIRNLSLDVEANRQAISRVQDSAVARADFQELGAKFEAKVQENTQRVGQLRQDVEDRLHAQHFTLHRSISELQADVDTKLKRLHKAQEAPGTNGSLVLATPGAGARPEPDSLQARLGQLQRNLSELHMTTARREEELQYTLEDMRATLTRHVDEIKELYSESDETFDQISKVERQVEELQVNHTALRELRVILMEKSLIMEENKEEVERQLLELNLTLQHLQGGHADLIKYVKDCNCQKLYLDLDVIREGQRDATRALEETQVSLDERRQLDGSSLQALQNAVDAVSLAVDAHKAEGERARAATSRLRSQVQALDDEVGALKAAAAEARHEVRQLHSAFAALLEDALRHEAVLAALFGEEVLEEMSEQTPGPLPLSYEQIRVALQDAASGLQEQALGWDELAARVTALEQASEPPRPAEHLEPSHDAGREEAATTALAGLARELQSLSNDVKNVGRCCEAEAGAGAASLNASLHGLHNALFATQRSLEQHQRLFHSLFGNFQGLMEANVSLDLGKLQTMLSRKGKKQQKDLEAPRKRDKKEAEPLVDIRVTGPVPGALGAALWEAGSPVAFYASFSEGTAALQTVKFNTTYINIGSSYFPEHGYFRAPERGVYLFAVSVEFGPGPGTGQLVFGGHHRTPVCTTGQGSGSTATVFAMAELQKGERVWFELTQGSITKRSLSGTAFGGFLMFKT
B4: emilin 1-KDEL: emilin 1 with KDEL sequence inserted upstream the STOP codon; retained intracellularly, not secreted (protein)
chain: ASYPPRGFSLYTGSSGALSPGGPQAQIAPRPASRHRNWCAYVVTRTVSCVLEDGVETYVKYQPCAWGQPQCPQSIMYRRFLRPRYRVAYKTVTDMEWRCCQGYGGDDCAESPAPALGPASSTPRPLARPARPNLSGSSAGSPLSGLGGEGPGESEKVQQLEEQVQSLTKELQGLRGVLQGLSGRLAEDVQRAVETAFNGRQQPADAAARPGVHETLNEIQHQLQLLDTRVSTHDQELGHLNNHHGGSSSSGGSRAPAPASAPPGPSEELLRQLEQRLQESCSVCLAGLDGFRRQQQEDRERLRAMEKLLASVEERQRHLAGLAVGRRPPQECCSPELGRRLAELERRLDVVAGSVTVLSGRRGTELGGAAGQGGHPPGYTSLASRLSRLEDRFNSTLGPSEEQEESWPGAPGGLSHWLPAARGRLEQLGGLLANVSGELGGRLDLLEEQVAGAMQACGQLCSGAPGEQDSQVSEILSALERRVLDSEGQLRLVGSGLHTVEAAGEARQATLEGLQEVVGRLQDRVDAQDETAAEFTLRLNLTAARLGQLEGLLQAHGDEGCGACGGVQEELGRLRDGVERCSCPLLPPRGPGAGPGVGGPSRGPLDGFSVFGGSSGSALQALQGELSEVILSFSSLNDSLNELQTTVEGQGADLADLGATKDRIISEINRLQQEATEHATESEERFRGLEEGQAQAGQCPSLEGRLGRLEGVCERLDTVAGGLQGLREGLSRHVAGLWAGLRETNTTSQMQAALLEKLVGGQAGLGRRLGALNSSLQLLEDRLHQLSLKDLTGPAGEAGPPGPPGLQGPPGPAGPPGSPGKDGQEGPIGPPGPQGEQGVEGAPAAPVPQVAFSAALSLPRSEPGTVPFDRVLLNDGGYYDPETGVFTAPLAGRYLLSAVLTGHRHEKVEAVLSRSNQGVARVDSGGYEPEGLENKPVAESQPSPGTLGVFSLILPLQAGDTVCVDLVMGQLAHSEEPLTIFSGALLYGDPELEHAKDEL

Key:
[1] = tested on: TGF-β activated p15 promoter; assay: p15-lux luciferase reporter in MEF primary cultures from wild type and emilin1 -/- mice; type: cell-based, mouse; settings: FIG. 3A, 3B
Description: MEF primary cultures were transfected with plasmid p15-lux (p15-luciferase) (Li et al., 1995) driving transcription of the luciferase marker gene under control of the p15^INK4B gene promoter. Since the p15 promoter is activated by TGF-β (i.e. p15 is a TGF-β target gene), the presence of the growth factor induces higher luciferase levels, which can be measured with a luminometer.

[2] = tested on: pro TGF-β1; assay: CAGA12-lux luciferase reporter in HEK293T cells co-transfected with pro TGF-β1 vector; type: cell-based, human; settings: for Effect on luciferase expression induced by pro TGF-β1: CAGA12-lux, co-transfection with pro TGF-β1 vector, FIG. 2B, 2C
Description: • The construct for emilin 1 expression was engineered in pCS2 vector (Rupp R. A. et al., 1994, Genes Dev 8, 1311-1323) (for a physical map of the vector, see the site faculty.washington.edu/rtmoon/pcs2+.html) as described (Zanetti M. et al., 2004, Mol Cell Biol 24, 638-650); the vector used for proTGF-β expression in MEF and HEK293T cells is pCDNA3.1 (Invitrogen). Vectors containing the coding sequence for human pro TGF-β are described in Young and Murphy-Ullrich, 2004 (Young and Murphy-Ullrich, 2004, J Biol Chem 279, 38032-38039). The human pro TGF-β cDNA sequence is reported in the data bank (NP_000660; protein 000651). • The vector for Furin/SPC 1 expression is pCDNA3.1 (Invitrogen) • p15 and CAGA 12 promoter fragments are described in Jonk L. J. et al., 1998, J Biol Chem 273, 21145-21152 […]. • Constructs containing Flag sequences are described in Young G. D and Murphy-Ullrich J E, 2004, J Biol Chem 279, 38032-38039. • Constructs containing the Flag epitope (e.g. Flag-EMI-domain-GPI) were prepared as described in Chubet R G et al. Biotechniques 1996; 20(1):136-141 and detected by anti-Flag antibody (Kodak Inc.). • Constructs containing the GPI anchor were prepared as described in the Manual “Current Protocols in Cell Biology” Howard R. Petty Wayne State University, Detroit, Mich.; Juan S. Bonifacino, Mary Dasso, Joe B. Harford, Jennifer Lippincott-Schwartz, and Kenneth M. Yamada (eds.), Copyright C 2003 John Wiley & Sons, Inc. (GPI-anchor). In the construct Flag-EMI domain-GPI, the Flag sequence was inserted at the N-terminus after the signal peptide, while the GPI-anchor sequence was placed at the COOH-terminal end. • The construct emilin 1-KDEL was obtained by inserting the KDEL coding sequence described by Munro S., and Pelham, H. R., 1987, Cell 48, 899-907 upstream the emilin 1 STOP codon. • The construct containing the type II TGF-β receptor with HA epitope was described in Wrana J. L. et al., 1994, Nature 370, 341-347. • supplier of the drugs used: SP600125 (Calbiochem), SB431542 (Tocris). • Purified recombinant LAP and TGF-β1 proteins were purchased from (R&D Systems)
To verify how emilin or the EMI domain can contrast TGF-β1 activity independently from receptor binding, HEK293T cells were transfected with a construct coding luciferase placed under control of a TGF-β activated promoter: CAGA12-lux (Jonk et al., 1998) alone or in combination with a emilin1 expression vector (500 ng) as shown in FIG. 2B. After transfection, cells were treated (black bar) or not treated (white bar) with 5 ng/ml recombinant TGF-1 (lanes 1 and 2). Column bars from 3 to 6 report luciferase expression values in experiments with cells co-transfected with the expression vector for emilin1 (or EMI-domain or emilin1ΔEMI) alone (white bars) or in combination with the vector encoding pro TGF-β1 (black bars). Values show the mean±st. dev.
As further validation of the above observations, HEK293T cells were cotransfected with expression plasmids carrying the cDNAs shown in the summary scheme above the figure, along with CAGA12-lux and CMV-lacZ constructs, and luciferase expression levels were measured.

[3] = biological target: T1, pro TGF-β1 (human TGF-β1 precursor) (human, UniProt P01137 30-390); assay: co-immunoprecipitation with anti-Flag antibodies from HEK293T cell extracts, western blot with anti-LAP antibodies
T1 construct: Expressed from pCDNA3.1 in HEK293T cells; also called TGF-β precursor; Flag-proTGF-β1
Procedure: To verify whether TGF-β or its precursor is the emilin target, HEK293T cells were transfected with a plasmid encoding pro TGF-β1 alone or with an expression plasmid for Flag-EMI domain-GPI. Cell extracts were prepared and subjected to the immunoprecipitation procedure with anti-Flag antibodies, as described in example 2. Immunoprecipitates were subjected to SDS-PAGE and Western blotting (WB) with anti-LAP antibodies.

T1 sequence (P01137 30-390): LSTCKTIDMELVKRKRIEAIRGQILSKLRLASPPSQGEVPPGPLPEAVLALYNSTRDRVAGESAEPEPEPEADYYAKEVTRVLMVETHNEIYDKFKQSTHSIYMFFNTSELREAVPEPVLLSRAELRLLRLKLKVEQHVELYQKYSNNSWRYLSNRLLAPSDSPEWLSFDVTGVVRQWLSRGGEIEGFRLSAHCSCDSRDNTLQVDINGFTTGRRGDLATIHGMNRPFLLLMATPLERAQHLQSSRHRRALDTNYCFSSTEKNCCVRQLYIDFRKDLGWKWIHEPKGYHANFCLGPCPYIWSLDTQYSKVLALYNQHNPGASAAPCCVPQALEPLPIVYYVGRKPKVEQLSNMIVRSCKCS

Row | Molecule | Effect on luciferase expression induced by pro TGF-β1 [2] | other results
1 | NC(=O)c1ccc(-c2nc(-c3ccc4c(c3)OCO4)c(-c3ccccn3)[nH]2)cc1 [SB431542] | – | p15-lux transcriptional response in normal versus emilin1 -/- MEF cells after drug treatment [1]: a similar response is measured in normal and mutant cells
2 | emilin 2: emilin family protein, GenBank NP-114437 | antagonize TGF-β activity at the of pro-TGF-β level | –
3 | B1 | – | binding result [3]: binds
4 | B2 | showed no effect on pro TGF-β | –
5 | B3 | antagonize TGF-β activity at the of pro-TGF-β level | –
6 | B4 | – | Luciferase expression stimulated by transfected pro TGF-β ([2]; CAGA12-lux and CMV-lacZ, FIG. 6C): abolishes its inhibitory action on the effects of pro TGF-β
